{"source": "patent US12006530B2", "about": "“Streptococcal proteases” (priority 2016, dated 2024)", "molecules": {"B1": {"name": "IgdEequi: IgdE isolated from S. equi strain ssp zooepidemicus #1, SEQ ID NO: 7 (protein, listed as Streptococcus equi)", "chain": "MEAWKHGSMEAWKHGSMEAWKHGRTLCKGLLLGLACGAISMSLVVKSTIVVADDVRLSEQSTVILDNTVSNLISEVKDELAKNHQDALEIYILGEGSPKYSGVSPDRLGDYIKDYKPVRLNGKVIHGRAFFMMKKEDQLISTKEEYDRIIAERFSNLEKFDYPTIHYTFNAELKDKYPYLSLILKASGLSLSDSINLGSTLGINGVTIHTQHLRIDNQFAYRYNGEDYKQDSHITFDRFKKNDDKLKELIATSGANQEGLTDAQRVKAYVLYMANHVDYDWDATRYNPDYLIFCQASDLFALTERNKAMCIGFSTAAARGLNLLGIPSYVTYGKNRDGVAHATIRAFYDKKWRTLDVTGVGRGKYTEEHYDNLNTHDYKIFDLTKETNVDLDRGYMEIYKDFEDWILSHNTKELLFINQDANIRNKVAKDVFKYIQEAEKQSLIDKYNEFIIRTSALKAEFKTDRLKEIVGSLVSQAQEELENIKHIEVMTEDEKDQFEYTLRNLGVYYSQCESANQ"}}, "key": {"[1]": {"test_system": "porcine IgG", "assay": "IgG cleavage by IgdE, SDS-PAGE", "type": "biochemical, pig", "settings": "purified polyclonal IgG, reducing SDS-PAGE", "summary_of_the_method": "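Porcine IgG (3.3 μM; 0.5 mg/ml), or IgG from other species, was incubated for 16 h at 37 °C with E. coli lysates expressing rIgdE constructs or with 10 nM purified rIgdE. Cleavage was judged on 12% SDS-PAGE under reducing or non-reducing conditions, by Coomassie staining or by western blot with anti-porcine IgG, IgM or IgA.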"}, "[2]": {"test_system": "human IgG", "assay": "IgG cleavage by IgdE, SDS-PAGE", "type": "biochemical", "settings": "purified polyclonal IgG, reducing SDS-PAGE", "protocol": "(A) rIgdEagalactiae was incubated with polyclonal IgG of six different species for 18 h at 37° C. and analyzed by SDS-PAGE under reducing conditions. Degradation products are indicated by asterisks (*). Images of different gels have been used to create the figure. (B) rIgdEagalactiae was incubated with human or bovine serum for 18 h in 37° C. and analyzed by SDS-PAGE under reducing conditions. Degradation products are indicated by asterisks (*). (C) Western Blot with crude extracts of rIgdEagalactiae incubated with human and porcine serum for 18 h in 37° C. Membrane was treated with antibodies against human and porcine polyclonal IgG respectively. Degradation products are indicated by asterisks (*). (D) rIgdEagalactiae was incubated with subclasses of human IgG as well as human IgA and IgM for 18 h in 37° C. and analyzed by SDS-PAGE under reducing conditions. Degradation products are indicated by asterisks (*). Images of different gels have been used to create the figure.\n(§1) 0.5 mg/ml of porcine IgG (Sigma) in PBS or of other species (human, goat, cow, horse and mouse; all Sigma) were incubated with either crude extracts of induced E. coli carrying S. suis IgdE constructs mentioned above or 10 nM purified rIgdE for 16 h at 37° C. prior subjection to SDS-PAGE under either reducing or non-reducing conditions.\n(§2) Samples for SDS-PAGE were prepared with either reducing or non-reducing sample buffer and heated to 95° C. for 5 min. 12% SDS-PAGE was either stained with Coomassie blue (Sigma), Coomassie Fluor™ Orange Protein Gel Stain (Invitrogen) or blotted to Hybond-P PVDF membrane (GE Healthcare) for western blot analyses. Membranes were blocked with 5% dry milk powder in 0.1% PBS-Tween, followed by incubation with horse-radish peroxidase conjugated antibodies. Goat anti-pig IgG-HRP (Thermo Scientific) and goat anti-porcine IgM-HRP (Thermo Scientific) was diluted 1:25′000 and goat anti-porcine IgA-HRP (Thermo Scientific) was diluted 1:12′500. Membranes were thoroughly washed with 0.1% PBS-Tween prior to development with Amersham ECL Select Western blotting detection reagent (GE Healthcare) according to manufactures instruction and pictured by LAS4000 imaging system (Fujifilm)."}, "[3]": {"test_system": "cow IgG", "assay": "IgG cleavage by IgdE, SDS-PAGE", "type": "biochemical", "settings": "purified polyclonal IgG, reducing SDS-PAGE", "protocol": "as §1, §2"}, "[4]": {"test_system": "goat IgG", "assay": "IgG cleavage by IgdE, SDS-PAGE", "type": "biochemical", "settings": "purified polyclonal IgG, reducing SDS-PAGE", "protocol": "as §1, §2"}, "[5]": {"test_system": "horse IgG", "assay": "IgG cleavage by IgdE, SDS-PAGE", "type": "biochemical", "settings": "purified polyclonal IgG, reducing SDS-PAGE", "protocol": "as §1, §2"}, "[6]": {"test_system": "mouse IgG", "assay": "IgG cleavage by IgdE, SDS-PAGE", "type": "biochemical", "settings": "purified polyclonal IgG, reducing SDS-PAGE", "protocol": "as §1, §2"}, "[7]": {"test_system": "rat IgG", "assay": "IgG cleavage by IgdE, SDS-PAGE", "type": "biochemical", "settings": "purified polyclonal IgG"}, "[8]": {"test_system": "rabbit IgG", "assay": "IgG cleavage by IgdE, SDS-PAGE", "type": "biochemical", "settings": "purified polyclonal IgG"}, "[9]": {"test_system": "IgG in equine serum", "assay": "Ig cleavage in equine serum, anti-IgG Western blot", "type": "biochemical, horse"}, "[10]": {"test_system": "equine IgG1", "assay": "Cleavage of recombinant equine IgG subtypes, SDS-PAGE", "type": "biochemical, horse", "settings": "0.6 μM, 16 h at 37° C., reducing SDS-PAGE", "protocol": "(§3) 0.6 μM recombinant equine IgG subtypes or serum IgG were incubated for 16 h at 37° C. with (+) or without (−) the soluble fraction of E. coli cells expressing rIgdEequi. Reactions were analyzed by SDS-PAGE under reducing conditions. […] SDS-PAGE was either stained with Coomassie Fluor Orange Protein Gel Stain (A) or subjected to Western blot (B) analyses with Rabbit Anti-Horse IgG H&L (HRP) ab6921."}, "[11]": {"test_system": "equine IgG2", "assay": "Cleavage of recombinant equine IgG subtypes, SDS-PAGE", "type": "biochemical, horse", "settings": "0.6 μM, 16 h at 37° C., reducing SDS-PAGE", "protocol": "as §3"}, "[12]": {"test_system": "equine IgG3", "assay": "Cleavage of recombinant equine IgG subtypes, SDS-PAGE", "type": "biochemical, horse", "settings": "0.6 μM, 16 h at 37° C., reducing SDS-PAGE", "protocol": "as §3"}, "[13]": {"test_system": "equine IgG4", "assay": "Cleavage of recombinant equine IgG subtypes, SDS-PAGE", "type": "biochemical, horse", "settings": "0.6 μM, 16 h at 37° C., reducing SDS-PAGE", "protocol": "as §3"}, "[14]": {"test_system": "equine IgG5", "assay": "Cleavage of recombinant equine IgG subtypes, SDS-PAGE", "type": "biochemical, horse", "settings": "0.6 μM, 16 h at 37° C., reducing SDS-PAGE", "protocol": "as §3"}, "[15]": {"test_system": "equine IgG6", "assay": "Cleavage of recombinant equine IgG subtypes, SDS-PAGE", "type": "biochemical, horse", "settings": "0.6 μM, 16 h at 37° C., reducing SDS-PAGE", "protocol": "as §3"}, "[16]": {"test_system": "equine IgG7", "assay": "Cleavage of recombinant equine IgG subtypes, SDS-PAGE", "type": "biochemical, horse", "settings": "0.6 μM, 16 h at 37° C., reducing SDS-PAGE", "protocol": "as §3"}, "[17]": {"test_system": "IgG", "assay": "IgG degrading cysteine protease activity: specificity as summarised", "type": "biochemical", "settings": "summary statement", "excerpt": "Typically, polypeptides for use in accordance with the invention display immunoglobulin cysteine protease activity, and in particular IgG degrading cysteine protease activity. Preferably, the polypeptide cleaves IgG in the hinge region and more particularly in the hinge region of the heavy chain. Preferably, cleavage results in production of Fc and Fab fragments of IgG. Preferably the activity is specific for IgG. The IgG degrading cysteine protease activity may be determined by means of a suitable assay. For example, a test polypeptide may be incubated with IgG at a suitable temperature, such as 37° C. The starting materials and the reaction products may then be analysed by SDS PAGE to determine whether the desired IgG cleavage product is present. Typically this cleavage product is a 32 kDa fragment. Typically there is no further degradation of IgG after this first cleavage. The cleavage product may be subjected to N-terminal sequencing to verify that cleavage has occurred in the hinge region of IgG.\nThe IgG degrading cysteine protease activity of the polypeptides is generally IgG-specific in that the polypeptides may not degrade other classes of Ig, namely IgM, and IgA, when incubated with these immunoglobulins under conditions that permit cleavage of IgG."}}, "data": [{"molecule": "B1", "values": [{"measurement": "cleavage of polyclonal porcine IgG (32 kDa degradation product)", "setting": "[1]", "result": "No degradation product was observed"}, {"measurement": "cleavage of polyclonal human IgG (32 kDa degradation product)", "setting": "[2]", "result": "No degradation product was observed"}, {"measurement": "cleavage of polyclonal cow IgG", "setting": "[3]", "result": "No degradation product was observed"}, {"measurement": "cleavage of polyclonal goat IgG", "setting": "[4]", "result": "No degradation product was observed"}, {"measurement": "cleavage of polyclonal horse IgG", "setting": "[5]", "result": "cleaved"}, {"measurement": "cleavage of polyclonal mouse IgG", "setting": "[6]", "result": "No degradation product was observed"}, {"measurement": "cleavage of polyclonal rat IgG", "setting": "[7]", "result": "No degradation product was observed"}, {"measurement": "cleavage of polyclonal rabbit IgG", "setting": "[8]", "result": "No degradation product was observed"}, {"measurement": "cleavage of IgG in equine serum", "setting": "[9]", "result": "cleaved IgG in equine serum"}, {"measurement": "cleavage of recombinant equine IgG1", "setting": "[10]", "result": "No degradation product was observed"}, {"measurement": "cleavage of recombinant equine IgG2", "setting": "[11]", "result": "No degradation product was observed"}, {"measurement": "cleavage of recombinant equine IgG3", "setting": "[12]", "result": "No degradation product was observed"}, {"measurement": "cleavage of recombinant equine IgG4", "setting": "[13]", "result": "No degradation product was observed"}, {"measurement": "cleavage of recombinant equine IgG5", "setting": "[14]", "result": "No degradation product was observed"}, {"measurement": "cleavage of recombinant equine IgG6", "setting": "[15]", "result": "No degradation product was observed"}, {"measurement": "cleavage of recombinant equine IgG7 (32 kDa degradation product)", "setting": "[16]", "result": "cleaved"}, {"measurement": "immunoglobulin specificity of the IgG degrading cysteine protease activity", "setting": "[17]", "result": "specific for equine IgG, and specifically equine IgG7"}]}]}
